These results are taken from patent publication US20190225669A1 (ACCELERON PHARMA, published 2019).

The Kd is the constant that tells how readily two partners part at equilibrium. A low value points to higher affinity. For orientation: koff means the rate constant with which the complex falls apart. For orientation: kon means the second-order rate constant of association.

B1: activin A (ligand, UniProt P08476 311-426, looked up)
chain: GLECDGKVNICCKKQFFVSFKDIGWNDWIIAPSGYHANYCEGECPSHIAGTSGSSLSFHSTVINHYRMRGHSPFANLKSCCVPTKLRPMSMLYYDDGQNIIKKDIQNMIVEECGCS

For assay [1], the target named is T1, ActRIIB-Fc homodimer (UniProt Q13705 19-137).
T1 construct: extracellular domain; also called ActRIIB homodimer
T1 sequence (looked up): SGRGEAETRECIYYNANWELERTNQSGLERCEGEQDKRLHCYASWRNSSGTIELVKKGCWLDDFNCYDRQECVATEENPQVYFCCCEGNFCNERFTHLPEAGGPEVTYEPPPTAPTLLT
The assay is described as follows: Biacore SPR. The protocol:
(§1) Ligands were injected and allowed to flow over the captured receptor protein.
(In general: SPR reads the build-up and loss of mass on a sensor chip optically.)

In assay [2] the target is T1, ActRIIB-Fc homodimer. The assay is described as follows: Biacore SPR. On the procedure: as §1
This is another data set of the same source.

The target of assay [3] is T1, ActRIIB-Fc homodimer. The assay is described as follows: Biacore SPR. On the procedure: as §1
The source holds these as a separate data set.

In assay [4] the target is T1, ActRIIB-Fc homodimer. The assay is described as follows: Biacore SPR. On the procedure: as §1
The source holds these as a separate data set.

Assay [5] addresses T2, ALK3-Fc homodimer (UniProt P36894 24-152).
T2 construct: extracellular domain
The assay is described as follows: Biacore SPR. On the procedure:
as §1

Assay [6] has as its target T3, BMPRII-Fc homodimer (UniProt Q13873 27-150).
T3 construct: extracellular domain
T3 sequence (looked up): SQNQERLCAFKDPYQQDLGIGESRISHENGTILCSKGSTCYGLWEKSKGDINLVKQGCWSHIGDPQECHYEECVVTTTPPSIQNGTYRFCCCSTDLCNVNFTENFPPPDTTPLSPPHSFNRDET
The assay is described as follows: Biacore SPR; kinetics indeterminate (transient). On the procedure:
as §1

In assay [7] the target is T1, ActRIIB-Fc homodimer. The assay is described as follows: Biacore SPR. The protocol: as §1
This is another data set of the same source.

Assay [8] deals with T4, GDF11 (UniProt O95390 299-407).
T4 construct: also called BMP11
T4 sequence (looked up): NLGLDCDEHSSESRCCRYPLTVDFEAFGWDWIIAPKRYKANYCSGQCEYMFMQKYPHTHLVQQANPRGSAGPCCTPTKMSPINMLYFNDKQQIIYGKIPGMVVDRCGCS
The assay is described as follows: Biacore SPR. The protocol:
as §1

Assay [9] addresses T5, BMP10 (UniProt O95393 317-424).
T5 sequence (looked up): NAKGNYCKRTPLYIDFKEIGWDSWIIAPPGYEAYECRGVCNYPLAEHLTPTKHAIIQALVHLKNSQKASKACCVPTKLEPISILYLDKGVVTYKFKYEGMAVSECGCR
The assay is described as follows: Biacore SPR. The protocol: as §1

The target in assay [10] is T6, activin B (UniProt P09529 293-407).
T6 sequence (looked up): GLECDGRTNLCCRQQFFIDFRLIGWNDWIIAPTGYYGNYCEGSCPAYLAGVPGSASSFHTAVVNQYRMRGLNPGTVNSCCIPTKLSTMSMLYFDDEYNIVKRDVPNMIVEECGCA
The assay is described as follows: Biacore SPR. On the procedure: as §1

Assay [11] has as its target T7, BMP9 (UniProt Q9UK05 320-429).
T7 construct: also called GDF2
T7 sequence (looked up): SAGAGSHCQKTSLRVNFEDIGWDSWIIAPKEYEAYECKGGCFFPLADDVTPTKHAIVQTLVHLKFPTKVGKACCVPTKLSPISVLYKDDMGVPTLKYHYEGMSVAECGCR
The assay is described as follows: Biacore SPR. The protocol:
as §1

The target in assay [12] is T8, GDF3 (UniProt Q9NR23 251-364).
T8 sequence (looked up): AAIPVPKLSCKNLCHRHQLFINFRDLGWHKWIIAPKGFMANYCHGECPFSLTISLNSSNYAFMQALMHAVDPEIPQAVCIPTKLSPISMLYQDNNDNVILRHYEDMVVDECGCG
The assay is described as follows: Biacore SPR. On the procedure:
as §1

The target of assay [13] is T9, BMP6 (UniProt P22004 382-513, limits assumed).
T9 sequence (looked up): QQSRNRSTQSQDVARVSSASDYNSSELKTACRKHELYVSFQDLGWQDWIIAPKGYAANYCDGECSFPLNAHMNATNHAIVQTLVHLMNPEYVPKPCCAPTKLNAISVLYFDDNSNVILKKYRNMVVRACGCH
The assay is described as follows: Biacore SPR. On the procedure:
as §1

Assay [14] addresses T10, GDF8 (UniProt O14793 267-375).
T10 construct: also called myostatin
T10 sequence (looked up): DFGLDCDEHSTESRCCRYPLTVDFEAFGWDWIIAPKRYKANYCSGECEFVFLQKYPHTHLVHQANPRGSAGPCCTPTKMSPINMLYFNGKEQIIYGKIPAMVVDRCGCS
The assay is described as follows: Biacore SPR. On the procedure:
as §1

Assay [15] addresses T11, BMP5 (UniProt P22003 317-454, limits assumed).
T11 sequence (looked up): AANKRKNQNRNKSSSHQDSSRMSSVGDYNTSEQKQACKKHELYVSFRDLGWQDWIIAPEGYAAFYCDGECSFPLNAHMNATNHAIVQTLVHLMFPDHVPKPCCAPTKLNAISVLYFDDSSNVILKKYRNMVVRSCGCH
The assay is described as follows: Biacore SPR. On the procedure:
as §1

Assay [16] deals with B1. The assay is described as follows: Biacore SPR. On the procedure:
as §1

The target of assay [17] is T12, TGFβ2 (human, UniProt P61812 303-414).
T12 construct: Human (PeproTech) is stated for the A549 reporter assay; also called TGF-beta2
T12 sequence (looked up): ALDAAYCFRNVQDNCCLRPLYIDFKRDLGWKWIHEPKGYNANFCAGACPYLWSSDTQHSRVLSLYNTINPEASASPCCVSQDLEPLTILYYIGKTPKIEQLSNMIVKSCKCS
The assay is described as follows: Biacore SPR; kinetics indeterminate (transient). The protocol:
(§2) A Biacore™-based binding assay was used to compare ligand binding selectivity of the TGFβRIISHORT-Fc:ALK1-Fc heterodimeric complex described above with that of TGFβRIISHORT-Fc and ALK1-Fc homodimeric complexes. […] Ligands were injected and allowed to flow over the captured receptor protein.

The target of assay [18] is T12, TGFβ2. The assay is described as follows: cell-based or functional assay.
For assay [19], the target named is T13, TGFβ1 (human, UniProt P01137 279-390). The assay is described as follows: cell-based or functional assay.
For assay [20], the target named is T13, TGFβ1. The assay is described as follows: Biacore SPR. On the procedure:
as §2

The target of assay [21] is T12, TGFβ2. The assay is described as follows: Biacore SPR. The protocol:
(§3) The heteromeric or homomeric protein complexes were independently captured onto the system using an anti-Fc antibody. Ligands were injected and allowed to flow over the captured receptor protein.

For assay [22], the target named is T13, TGFβ1. The assay is described as follows: Biacore SPR. The protocol:
as §3
This is another data set of the same source.

Read-outs that look alike come from different tables or passages of the source. Bounds are passed on as bounds.

T13 sequence (P01137 279-390 limits assumed): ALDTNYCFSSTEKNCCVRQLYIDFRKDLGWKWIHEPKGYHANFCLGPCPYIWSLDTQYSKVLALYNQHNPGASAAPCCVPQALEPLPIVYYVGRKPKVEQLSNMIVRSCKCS
T2 sequence (P36894 24-152): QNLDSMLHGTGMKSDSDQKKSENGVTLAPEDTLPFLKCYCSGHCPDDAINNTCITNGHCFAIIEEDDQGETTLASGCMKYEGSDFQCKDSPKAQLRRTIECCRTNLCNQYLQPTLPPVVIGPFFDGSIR

On to B1, for which the Kd was 0.011 nM in assay [1]; 0.019 nM in [2]; 0.019 nM in [3]; 0.011 nM in [4]; more than 43 nM in [6]; 0.015 nM in [7]. Besides, the koff in assay [1] was 0.00014 s⁻¹; in [2], 0.00023 s⁻¹; in assay [3], 0.00023 s⁻¹; in assay [4], 0.00014 s⁻¹; in assay [7], 0.00017 s⁻¹. For the same molecule, the kon in assay [1] was 1.3e+07 M⁻¹ s⁻¹; in [2] it was 1.2e+07 M⁻¹ s⁻¹; in [3], 1.2e+07 M⁻¹ s⁻¹; in assay [4], 1.3e+07 M⁻¹ s⁻¹; in [7], 1.2e+07 M⁻¹ s⁻¹. In addition, in assay [5], the binding result is listed as “no binding”.

B2: ALK7-Fc homodimer (Fc fusion, UniProt Q8NER5 22-113, looked up, not shown: a dimerising Fc or GST)
chain: LSPGLKCVCLLCDSSNFTCQTEGACWASVMLTNGKEQVIKSCVSLPELNAQVFCHSSNNVTKTECCFTDFCNNITLHLPTASPNAPKLGPME
notes: extracellular domain
On to B2, for which the binding result in assay [8], in assay [9], in [10], in assay [11], in [12] and in assay [13] was “no binding” each time. The binding result in assay [14], in assay [15] and in [16] was “no binding” in each case.

B3: TGFβRIISHORT-Fc homodimer (Fc fusion)
chain: TIPPHVQKSVNNDMIVTDNNGAVKFPQLCKFCDVRFSTCDNQKSCMSNCSITSICEKPQEVCVAVWRKNDENITLETVCHDPKLPYHDFILEDAASPKCIMKEKKKPGETFFMCSCSSDECNDNIIFSEEYNTSNPD
B3: the equilibrium dissociation constant (Kd) is more than 44 nM in assay [17], 0.025 nM in assay [20], 11 nM in assay [21] and 0.02 nM in assay [22]. Further, the “IC50 (pM), CAGA12-luciferase reporter gene assay in A549 cells, TGFβ2 at 480 pg/mL” value in assay [18] is more than 10000 pM. The “IC50 (pM), CAGA12-luciferase reporter gene assay in A549 cells, TGFβ1 at 640 pg/mL” value in [19] came out at 90 pM.
